T1: human IL-11 (human, UniProt P20809 22-199)
T1 sequence: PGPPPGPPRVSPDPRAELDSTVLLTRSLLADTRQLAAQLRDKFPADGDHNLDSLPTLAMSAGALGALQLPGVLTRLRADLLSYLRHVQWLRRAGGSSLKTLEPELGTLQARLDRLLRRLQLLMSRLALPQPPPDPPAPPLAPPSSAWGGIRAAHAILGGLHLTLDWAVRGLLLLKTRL

T2: murine IL-11 (mouse, UniProt P47873 22-199)
T2 sequence: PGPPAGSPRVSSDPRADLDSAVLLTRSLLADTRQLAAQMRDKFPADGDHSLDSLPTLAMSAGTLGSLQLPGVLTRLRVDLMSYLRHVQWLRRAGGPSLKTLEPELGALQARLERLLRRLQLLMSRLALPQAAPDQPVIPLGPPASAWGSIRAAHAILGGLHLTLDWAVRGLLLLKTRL

T3: human IL2Ra (human, UniProt P01589 22-240, limits assumed)
T3 construct: bought protein, coated on the plate; also called hIL2RA; IL-2 receptor alpha
T3 sequence (looked up): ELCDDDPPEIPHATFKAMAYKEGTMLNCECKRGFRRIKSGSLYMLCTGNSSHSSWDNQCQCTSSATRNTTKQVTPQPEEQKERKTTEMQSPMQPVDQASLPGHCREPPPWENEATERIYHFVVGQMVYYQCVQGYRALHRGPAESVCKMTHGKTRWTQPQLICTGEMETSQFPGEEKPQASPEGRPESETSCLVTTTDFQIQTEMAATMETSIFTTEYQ


Columns and labels:
human IL-11 = biological target: T1, human IL-11; assay: cell-based or functional assay
murine IL-11 = biological target: T2, murine IL-11; assay: cell-based or functional assay
human IL2Ra = biological target: T3, human IL2Ra; assay: IL2Ra direct binding ELISA, signal ratio to isotype control
Method: IL2RA (Peprotech, Germany, #200-02RC) was coated at 1 or 0 μg/ml (buffer only control) in 30 μl coating buffer (Candor, #113500) per well on a 384 well microtiter plate (Maxisorb, Nunc, #460518) over night at 4-8° C. After two washes with 50 μl/well washing buffer (PBS+0.05% Tween, pH 7.4), the plates were incubated for two hours at room temperature with 50 μl/well SmartBlock (Candor, #113500). After blocking, the plates were washed three times with washing buffer. Then, a dilution series of the respective antibody (1E-7 [M] down to 2E-13 [M]) in PBS+0.05% Tween, 10% SmartBlock were added in 30 μl to the microtiter plate and incubated for 90 min at room temperature. After three additional washes, 30 μl anti mouse IgG HRP-conjugated antibody (Biotechne, HAF007), diluted 1:1000 in PBS+0.05% Tween (pH 7.4), were added per well and incubated for one hour. After three additional washes, a mixture of Amplex red (Invitrogen, #12222, 10 mM stock solution in DMSO) 1:1000 diluted in PBS and H2O2 (30%, Merck, #107209)) diluted 1:10000 in PBS were added as substrate with 30 μl per well and incubated for 20 min in the dark. Relative fluorescence was measured with a microtiter plate reader at 535/590 nm.
Next, the 42 antibodies were subjected to an IL2Ra binding ELISA as described in Example 20.

Row | Binder | RGA Efficacy (%) (human IL-11) | RGA IC50 (human IL-11) [nM] | RGA Efficacy (%) (murine IL-11) | RGA IC50 (murine IL-11) [nM] | hIL2RA ELISA Binding: Ratio to Isotpye (human IL2Ra) [ratio]
1 | TPP-26291 (antibody, V domains shown) VH: EVQLLESGGGLVQPGGSLRLSCAASGFTFSSYGMHWVRQAPGKGLEWVSVISYDGSYKYYADSVKGRFTISRDNSKNTLYLQMNSLRAEDTAVYYCAAGVPDYWGQGTLVTVSS VL: QSVLTQPPSASGTPGQRVTISCTGSSSNIGAGYDVHWYQQLPGTAPKLLIYSNNERPSGVPDRFSGSKSGTSASLAISGLRSEDEADYYCAAWDPSLNGPVFGGGTKLTVL | 68.9 | 4.1 | 92.1 | 1.6 | 334
2 | TPP-26293 (antibody, V domains shown) VH: EVQLLESGGGLVQPGGSLRLSCAASGFTFSSYGMHWVRQAPGKGLEWVSVISYDGSYKYYADSVKGRFTISRDNSKNTLYLQMNSLRAEDTAVYYCAAGVPDYWGQGTLVTVSS VL: QSVLTQPPSASGTPGQRVTISCTGSSSNIGAWYDVHWYQQLPGTAPKLLIYSNNERPSGVPDRFSGSKSGTSASLAISGLRSEDEADYYCAAWDDSLNGPVFGGGTKLTVL | 73.7 | 2.8 | 96.9 | 0.95 | 384
3 | TPP-26292 (antibody, V domains shown) VH: EVQLLESGGGLVQPGGSLRLSCAASGFTFSSYGMHWVRQAPGKGLEWVSVISYDGSYKYYADSVKGRFTISRDNSKNTLYLQMNSLRAEDTAVYYCAAGVPDYWGQGTLVTVSS VL: QSVLTQPPSASGTPGQRVTISCTGSSSNIGAGYDVHWYQQLPGTAPKLLIYSNNERPSGVPDRFSGSKSGTSASLAISGLRSEDEADYYCAAWDESLNGPVFGGGTKLTVL | 74 | 5.6 | 94.7 | 0.94 | 557

Further lines, results first:

Row | RGA Efficacy (%) (human IL-11) | RGA IC50 (human IL-11) [nM] | RGA Efficacy (%) (murine IL-11) | RGA IC50 (murine IL-11) [nM] | hIL2RA ELISA Binding: Ratio to Isotpye (human IL2Ra) [ratio] | Binder
4 | 69.4 | 9.8 | 97.9 | 1.5 | 275 | TPP-26294 (antibody, V domains shown) VH: EVQLLESGGGLVQPGGSLRLSCAASGFTFSSYGMHWVRQAPGKGLEWVSVISYDGSYKYYADSVKGRFTISRDNSKNTLYLQMNSLRAEDTAVYYCAAGVPDYWGQGTLVTVSS VL: QSVLTQPPSASGTPGQRVTISCTGSSSNIGAAYDVHWYQQLPGTAPKLLIYSNNERPSGVPDRFSGSKSGTSASLAISGLRSEDEADYYCAAWDDSLNGPVFGGGTKLTVL
5 | 69.2 | 13 | 93.9 | 2.1 | 385 | TPP-26295 (antibody, V domains shown) VH: EVQLLESGGGLVQPGGSLRLSCAASGFTFSSYGMHWVRQAPGKGLEWVSVISYDGSYKYYADSVKGRFTISRDNSKNTLYLQMNSLRAEDTAVYYCAAGVPDYWGQGTLVTVSS VL: QSVLTQPPSASGTPGQRVTISCTGSSSNIGAGYDVHWYQQLPGTAPKLLIYSNNERPSGVPDRFSGSKSGTSASLAISGLRSEDEADYYCAAWDHSLNGPVFGGGTKLTVL
6 | 71 | 20 | 93.1 | 2.9 | 379 | TPP-26296 (antibody, V domains shown) VH: EVQLLESGGGLVQPGGSLRLSCAASGFTFSSYGMHWVRQAPGKGLEWVSVISYDGSYKYYADSVKGRFTISRDNSKNTLYLQMNSLRAEDTAVYYCAAGVPDYWGQGTLVTVSS VL: QSVLTQPPSASGTPGQRVTISCTGSSSNIGAGYDVHWYQQLPGTAPKLLIYSNNERPSGVPDRFSGSKSGTSASLAISGLRSEDEADYYCAAWDNSLNGPVFGGGTKLTVL
7 | 57.1 | 3.7 | 93.5 | 1.8 | 183 | TPP-26297 (antibody, V domains shown) VH: EVQLLESGGGLVQPGGSLRLSCAASGFTFSSYGMHWVRQAPGKGLEWVSVISYDGSYKYYADSVKGRFTISRDNSKNTLYLQMNSLRAEDTAVYYCAAGVPDYWGQGTLVTVSS VL: QSVLTQPPSASGTPGQRVTISCTGSSSNIGAGYDVHWYQQLPGTAPKLLIYSNNERPSGVPDRFSGSKSGTSASLAISGLRSEDEADYYCAAWQDSLNGPVFGGGTKLTVL
